Measurements as given in patent US20220175946A1 (MAGENTA THERAPEUTICS, published 2022).

B1: Antibody 56 (Ab56) (antibody, V domains shown)
VH: QVQLVQSGAEVKKPGSSVKVSCKASGGTFSLYAISWVRQAPGQGLEWMGGIIPAFGTANYAQKFQGRVTITADESTSTAYMELSSLRSEDTAVYYCARGGLDTDEFDLWGRGTLVTVSS
VL: DIQMTQSPSSLSASVGDRVTITCRASQSINSYLNWYQQKPGKAPKLLIYAASSLQSGVPSRFSGSGSGTDFTLTISSLQPEDFATYYCQQGVSDITFGGGTKVEIKR
B2: Antibody 57 (Ab57) (antibody, V domains shown)
VH: QVQLVQSGAEVKKPGSSVKVSCKASGGTFSLYAISWVRQAPGQGLEWMGGIIPHFGLANYAQKFQGRVTITADESTSTAYMELSSLRSEDTAVYYCARGGLDTDEFDLWGRGTLVTVSS
VL: DIQMTQSPSSLSASVGDRVTITCRASQSINSYLNWYQQKPGKAPKLLIYAASSLQSGVPSRFSGSGSGTDFTLTISSLQPEDFATYYCQQGVSDITFGGGTKVEIKR
B3: Antibody 55 (Ab55) (antibody, V domains shown)
VH: QVQLVQSGAEVKKPGSSVKVSCKASGGTFRIYAISWVRQAPGQGLEWMGGIIPDFGVANYAQKFQGRVTITADESTSTAYMELSSLRSEDTAVYYCARGGLDTDEFDLWGRGTLVTVSS
VL: DIQMTQSPSSLSASVGDRVTITCRASQSINSYLNWYQQKPGKAPKLLIYAASSLQSGVPSRFSGSGSGTDFTLTISSLQPEDFATYYCQQGVSDITFGGGTKVEIKR
B4: Antibody 54 (Ab54) (antibody, V domains shown)
VH: QVQLVQSGAEVKKPGSSVKVSCKASGGTFSSYAISWVRQAPGQGLEWMGGIIPIFGTANYAQKFQGRVTITADESTSTAYMELSSLRSEDTAVYYCARGGLDTDEFDLWGRGTLVTVSS
VL: DIQMTQSPSSLSASVGDRVTITCRASQSINSYLNWYQQKPGKAPKLLIYAASSLQSGVPSRFSGSGSGTDFTLTISSLQPEDFATYYCQQGVSDITFGGGTKVEIKR
B5: Antibody 58 (Ab58) (antibody, V domains shown)
VH: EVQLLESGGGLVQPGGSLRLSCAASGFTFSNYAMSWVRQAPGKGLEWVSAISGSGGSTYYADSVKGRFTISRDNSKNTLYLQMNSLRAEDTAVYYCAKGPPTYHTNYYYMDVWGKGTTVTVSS
VL: DIQMTQSPSSVSASVGDRVTITCRASQGISSWLAWYQQKPGKAPKLLIYAASSLQSGVPSRFSGSGSGTDFTLTISSLQPEDFATYYCQQTNSFPYTFGGGTKVEIKR
B6: Antibody 61 (Ab61) (antibody, V domains shown)
VH: EVQLLESGGGLVQPGGSLRLSCAASGFTFSSYVMIWVRQAPGKGLEWVSSISGDSVTTYYADSVKGRFTISRDNSKNTLYLQMNSLRAEDTAVYYCAKGPPTYHTNYYYMDVWGKGTTVTVSS
VL: DIQMTQSPSSVSASVGDRVTITCRASQGISSWLAWYQQKPGKAPKLLIYAASSLQSGVPSRFSGSGSGTDFTLTISSLQPEDFATYYCQQTNSFPYTFGGGTKVEIKR
B7: Antibody 67 (Ab67) (antibody, V domains shown)
VH: EVQLVESGGGLVQPGGSLRLSCAASGFTFSDADMDWVRQAPGKGLEWVGRTRNKAGSYTTEYAASVKGRFTISRDDSKNSLYLQMNSLKTEDTAVYYCAREPKYWIDFDLWGRGTLVTVSS
VL: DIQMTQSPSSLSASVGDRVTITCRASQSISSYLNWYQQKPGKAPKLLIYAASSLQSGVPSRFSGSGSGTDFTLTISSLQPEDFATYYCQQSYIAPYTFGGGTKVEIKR
B8: Antibody 69 (Ab69) (antibody, V domains shown)
VH: EVQLVESGGGLVQPGGSLRLSCAASGFTFVDHDMDWVRQAPGKGLEWVGRTRNKLGSYTTEYAASVKGRFTISRDDSKNSLYLQMNSLKTEDTAVYYCAREPKYWIDFDLWGRGTLVTVSS
VL: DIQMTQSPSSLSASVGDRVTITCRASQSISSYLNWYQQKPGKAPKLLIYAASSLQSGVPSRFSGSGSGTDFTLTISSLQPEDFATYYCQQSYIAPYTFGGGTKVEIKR
B9: Antibody 66 (Ab66) (antibody, V domains shown)
VH: EVQLVESGGGLVQPGGSLRLSCAASGFTFSDHYMDWVRQAPGKGLEWVGRTRNKASSYTTEYAASVKGRFTISRDDSKNSLYLQMNSLKTEDTAVYYCAREPKYWIDFDLWGRGTLVTVSS
VL: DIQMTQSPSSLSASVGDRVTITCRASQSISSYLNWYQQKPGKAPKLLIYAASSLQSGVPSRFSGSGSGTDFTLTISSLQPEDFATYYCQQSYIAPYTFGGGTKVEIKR
B10: Antibody 68 (Ab68) (antibody, V domains shown)
VH: EVQLVESGGGLVQPGRSLRLSCTASGFTFSDHDMNWVRQAPGKGLEWVGRTRNAAGSYTTEYAASVKGRFTISRDDSKNSLYLQMNSLKTEDTAVYYCAREPKYWIDFDLWGRGTLVTVSS
VL: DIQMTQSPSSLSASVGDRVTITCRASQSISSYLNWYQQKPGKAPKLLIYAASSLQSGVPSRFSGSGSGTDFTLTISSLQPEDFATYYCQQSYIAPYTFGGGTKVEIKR
B11: CK6 (antibody, V domains shown)
VH: QVQLVQSGAAVKKPGESLKISCKGSGYRFTSYWIGWVRQMPGKGLEWMGIIYPGDSDTRYSPSFQGQVTISAGKSISTAYLQWSSLKASDTAMYYCARHGRGYNGYEGAFDIWGQGTMVTVSS
VL: AIQLTQSPSSLSASVGDRVTITCRASQGISSALAWYQQKPGKAPKLLIYDASSLESGVPSRFSGSGSGTDFTLTISSLQPEDFATYYCQQFNSYPLTFGGGTKVEIK

Biological target: Human CD117 as expressed on cells (Kasumi-1 cells; primary human CD34+ bone marrow cells) (human, UniProt P10721 26-976)
Experiment: cell-based or functional assay

Human CD117 as expressed on cells (Kasumi-1 cells; primary human CD34+ bone marrow cells), sequence (P10721 26-976 limits assumed): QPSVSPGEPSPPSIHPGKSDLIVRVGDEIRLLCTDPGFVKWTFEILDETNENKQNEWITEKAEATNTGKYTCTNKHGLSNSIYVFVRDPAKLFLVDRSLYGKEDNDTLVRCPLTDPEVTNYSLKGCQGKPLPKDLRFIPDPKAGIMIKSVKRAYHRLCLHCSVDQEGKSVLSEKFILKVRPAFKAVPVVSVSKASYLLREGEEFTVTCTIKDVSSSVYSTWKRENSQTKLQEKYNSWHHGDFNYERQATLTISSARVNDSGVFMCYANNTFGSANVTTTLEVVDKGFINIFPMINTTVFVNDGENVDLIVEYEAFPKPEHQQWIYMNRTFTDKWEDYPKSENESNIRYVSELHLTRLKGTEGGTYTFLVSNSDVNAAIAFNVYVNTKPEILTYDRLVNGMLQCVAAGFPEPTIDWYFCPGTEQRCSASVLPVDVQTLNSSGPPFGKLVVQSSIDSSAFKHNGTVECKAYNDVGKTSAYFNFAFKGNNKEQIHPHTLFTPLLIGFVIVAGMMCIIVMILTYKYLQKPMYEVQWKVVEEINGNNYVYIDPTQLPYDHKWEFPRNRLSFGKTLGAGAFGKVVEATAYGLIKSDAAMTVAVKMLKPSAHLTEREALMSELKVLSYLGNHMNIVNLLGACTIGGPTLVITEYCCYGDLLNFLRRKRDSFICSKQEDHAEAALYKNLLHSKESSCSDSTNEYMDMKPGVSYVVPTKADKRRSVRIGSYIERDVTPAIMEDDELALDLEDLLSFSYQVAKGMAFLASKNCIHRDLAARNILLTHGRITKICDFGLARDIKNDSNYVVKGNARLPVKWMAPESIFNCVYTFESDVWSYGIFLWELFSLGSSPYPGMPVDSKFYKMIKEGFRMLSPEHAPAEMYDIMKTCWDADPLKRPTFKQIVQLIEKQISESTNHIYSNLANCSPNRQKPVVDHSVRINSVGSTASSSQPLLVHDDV

Binder | AUC Kasumi-1 Killing (AUC hIgG1 - AUC MAC ID#)
B1 | 193000
B2 | 157000
B3 | 226000
B4 | 155000
B5 | 97400
B6 | 78600
B7 | 156000
B8 | 40000
B9 | 135000
B10 | 14400
B11 | 132000
